From paper PMC10981675, “Structural basis for phage-mediated activation and repression of bacterial DSR2 anti-phage defense system” (Nature Communications, 2024)
Residue numbers refer to the chain shown, from its start. Names and notes keep the numbering of the source.

T1: DSR2–tube complex (Bacillus subtilis, UniProt P0DXN8)
T1 construct: gene BKP58_08510; full-length DSR2, N-terminal 6xHis, E. coli BL21 Star (DE3), codon-optimized; tube GST tag removed by HRV 3C; tetrameric DSR2; DSR2:tube 4:2 (wild type) or 4:4 (H171A with NAD+); with Tail tube protein (Bacillus phage SPR)
T1 sequence (P0DXN8 1-1005): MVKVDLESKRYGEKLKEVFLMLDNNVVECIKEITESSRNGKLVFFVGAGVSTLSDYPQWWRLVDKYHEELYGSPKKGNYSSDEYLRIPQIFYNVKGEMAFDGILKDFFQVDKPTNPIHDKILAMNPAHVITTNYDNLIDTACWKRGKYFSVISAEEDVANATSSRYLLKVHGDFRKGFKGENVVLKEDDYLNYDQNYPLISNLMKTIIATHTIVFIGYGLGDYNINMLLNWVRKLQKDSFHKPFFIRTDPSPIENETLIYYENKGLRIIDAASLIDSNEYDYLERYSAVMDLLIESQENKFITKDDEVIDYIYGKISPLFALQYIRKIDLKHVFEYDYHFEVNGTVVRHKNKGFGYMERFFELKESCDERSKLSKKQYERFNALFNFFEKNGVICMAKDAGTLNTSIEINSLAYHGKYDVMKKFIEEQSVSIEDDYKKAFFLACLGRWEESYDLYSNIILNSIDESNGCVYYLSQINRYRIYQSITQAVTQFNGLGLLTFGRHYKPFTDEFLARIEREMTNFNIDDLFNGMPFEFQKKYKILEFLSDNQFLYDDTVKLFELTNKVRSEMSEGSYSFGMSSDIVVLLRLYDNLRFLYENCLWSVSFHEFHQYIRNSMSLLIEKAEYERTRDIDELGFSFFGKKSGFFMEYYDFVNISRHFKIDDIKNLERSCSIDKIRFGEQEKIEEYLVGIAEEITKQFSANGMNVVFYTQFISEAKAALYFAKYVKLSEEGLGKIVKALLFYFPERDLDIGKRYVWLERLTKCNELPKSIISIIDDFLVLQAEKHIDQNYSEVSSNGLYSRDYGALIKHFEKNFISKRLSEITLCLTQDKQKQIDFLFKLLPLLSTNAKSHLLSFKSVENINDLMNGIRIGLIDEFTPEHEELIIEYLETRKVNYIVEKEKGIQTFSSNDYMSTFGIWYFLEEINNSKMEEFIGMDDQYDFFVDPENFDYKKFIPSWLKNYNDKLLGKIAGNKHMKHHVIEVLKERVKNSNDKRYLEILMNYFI
T1 sequence (A0AAE9G628 1-264 partner): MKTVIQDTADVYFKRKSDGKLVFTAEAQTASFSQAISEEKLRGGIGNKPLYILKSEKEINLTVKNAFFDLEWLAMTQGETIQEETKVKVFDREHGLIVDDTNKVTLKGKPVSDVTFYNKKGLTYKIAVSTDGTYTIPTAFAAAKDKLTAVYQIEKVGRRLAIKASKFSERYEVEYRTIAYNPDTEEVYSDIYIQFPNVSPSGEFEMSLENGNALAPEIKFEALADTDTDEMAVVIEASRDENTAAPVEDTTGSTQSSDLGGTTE

B1: defense-associated sirtuin 2 (DSR2), wild type (enzyme, Bacillus subtilis)
chain: T1 sequence (P0DXN8 1-1005)
notes: DSR2 (defense-associated sirtuin 2) of Bacillus subtilis, NCBI protein WP_029317421; codon-optimized synthetic gene in pRSFDuet MCS1; Tetramer (dimer of dimers) by cryo-EM and SEC; also called WT DSR2; wild-type DSR2; source: E. coli BL21 Star (DE3), purified (Ni-NTA, HiTrap Q, Superdex 200); also co-purified with tube or DSAD1; not shown: 6×His, N-terminal, kept
B2: DSR2 H171A (enzyme, Bacillus subtilis)
chain: T1 sequence (P0DXN8 1-1005) with H171A
notes: DSR2 of Bacillus subtilis, NCBI protein WP_029317421, with H171A; source: E. coli, co-expressed with the tail tube protein, co-purified
B3: tail tube protein of phage SPR, wild type (natural protein)
chain: T1 sequence (A0AAE9G628 1-264 partner)
notes: tail tube protein of Bacillus phage SPR; domains D1 and D2; GST removal with HRV 3C is told for the DSR2-tube complex; Alone it runs as monomeric and oligomeric species on SEC; Only D1 is seen in the maps; also called phage tail tube protein; source: E. coli BL21 Star (DE3); purified alone, or co-purified with DSR2 (Ni-NTA, glutathione resin, HRV 3C cleavage, HiTrap Q, Superdex 200); not shown: …

Columns and labels:
[1] = molecular target: defense-associated sirtuin 2 (DSR2), wild type (Bacillus subtilis) (UniProt P0DXN8); test: cryo-EM structure; co-purified complex incubated with 1 mM NAD+ before freezing; settings: scale: DSAD1 per DSR2
[2] = molecular target: defense-associated sirtuin 2 (DSR2), wild type (Bacillus subtilis) (UniProt P0DXN8); test: cryo-EM structure; purified DSR2 (~25 mg/mL), co-purified DSR2-DSAD1 (~25 mg/mL) or co-purified DSR2-tube (~4 mg/mL, polylysine-treated grid); no NAD+ added; Titan Krios 300 kV; settings: scale: DSAD1 per DSR2
DSR2–tube complex = molecular target: T1, DSR2–tube complex; test: fluorescence NADase assay (ex […] nm, em […] nm); type: biochemical; settings: 400 nM protein, 50 μM εNAD+, 10 mM MES pH 6.5, 75 mM KCl, 2 mM MgCl2, 37 °C
[3] = molecular target: the molecule itself; test: SEC; purified DSR2 alone; Superdex 200 Increase 10/300 GL, 20 mM Tris-HCl pH 7.5, 150 mM NaCl, 1 mM DTT
[4] = molecular target: the molecule itself; test: cryo-EM structure; co-purified complex incubated with 1 mM NAD+ before freezing
[5] = molecular target: B1; test: cryo-EM structure; purified DSR2 (~25 mg/mL), co-purified DSR2-DSAD1 (~25 mg/mL) or co-purified DSR2-tube (~4 mg/mL, polylysine-treated grid); no NAD+ added; Titan Krios 300 kV; settings: both partners purified
DSR2 H171A = molecular target: B2; test: cryo-EM structure; co-purified complex incubated with 1 mM NAD+ before freezing; settings: both partners purified
[6] = molecular target: the molecule itself; test: SEC; purified tail tube protein alone

Molecule: DSR anti-defense 1 (DSAD1) (natural protein)
- stoichiometry N [1]: 0.5
- stoichiometry N [2]: 0.5

Molecule: NC(=O)c1ccc[n+]([C@@H]2O[C@H](COP(=O)(O)OP(=O)(O)OC[C@H]3O[C@@H](n4cnc5c4ncn4ccnc54)[C@H](O)[C@@H]3O)[C@@H](O)[C@H]2O)c1 [εNAD^+]
- fluorescence NADase assay (ex 300 nm, em 410 nm) (DSR2–tube complex): The purified DSR2–tube complex exhibited pronounced NADase activity

Molecule: B1
- stoichiometry N [3]: 4

Molecule: B2
- stoichiometry N [4]: 4

Molecule: B3
- stoichiometry N [5]: 0.5 tube per DSR2 (printed as DSR2:tube 4:2)
- stoichiometry N (DSR2 H171A): 1 tube per DSR2 (printed as DSR2:tube 4:4)
- binding result [6]: binds
